This note sets out measurements from patent US20200369765A1 (INNATE PHARMA, published 2020).

Broadly, the EC50 is the concentration that produces a half-maximal response.

Assay [1] deals with T1, Human Siglec-7 (human, UniProt Q9Y286 19-467).
T1 construct: Expressed on transfected CHO cells; also called huSiglec-7; CD328
Briefly: flow cytometry, CHO transfectants. As for the experimental part:
(§1) Binding of antibodies on human Siglec-7, human Siglec-9 and Cynomolgus Siglec-9 was tested by titration experiment by flow cytometry on CHO cells transfected with human Siglec-7 and human Siglec-9 and Cynomolgus Siglec-9. Cells were incubated 1h in Staining Buffer (SB) with primary antibodies at 20 ug/ml and a series of dilution of 1:5. They were washed three times with SB, then incubated 30 min with a goat F(ab′)² Anti-human IgG (Fc) PE (Beckman Coulter #1M05510), and washed twice with SB.
Background: A flow cytometer gives signals particle by particle.

The target of assay [2] is T2, Human Siglec-9 (human, UniProt Q9Y336 18-463).
T2 construct: On transfected CHO cells; also on YTS and KHYG-1 transfectants, primary NK cells and moDC; also called huSiglec-9; CD329
The assay can be described thus: flow cytometry, CHO transfectants. As for the experimental part: as §1

Assay [3] concerns the target T3, Cynomolgus Siglec (cynomolgus).
T3 construct: Expressed on transfected CHO cells; also called Siglec-Cyno; cynoSiglec
Briefly: flow cytometry, CHO transfectants. As for the experimental part: as §1

In assay [4] the target is T4, Human Siglec-9 mutant M7 (human, UniProt Q9Y336 18-463).
T4 construct: Expressed on HEK293T cells; also called Mutant 7
Briefly: flow cytometry, HEK293T transfectants.

The target in assay [5] is T5, Human Siglec-9 mutant M8 (human, UniProt Q9Y336 18-463).
T5 construct: Expressed on HEK293T cells; also called Mutant 8
Briefly: flow cytometry, HEK293T transfectants.

The target of assay [6] is T6, Human Siglec-9 mutant M9 (human, UniProt Q9Y336 18-463).
T6 construct: Expressed on HEK293T cells; also called Mutant 9
The assay can be described thus: flow cytometry, HEK293T transfectants; '-' indicates full loss of binding.

Assay [7] addresses T7, Human Siglec-9 mutant M11 (human, UniProt Q9Y336 18-463).
T7 construct: Expressed on HEK293T cells; also called Mutant 11
The assay is described as above.

Assay [8] addresses T8, Siglec-7 Fc protein (human).
T8 construct: Produced in CHO cells; also called human Siglec-7 Fc
Briefly: ELISA, blocking: Siglec-7 Fc captured on protein A, mAb dilution series, then biotinylated polymer Sia2, streptavidin-peroxidase (top panel); partial inhibition. As for the experimental part:
(§2) Blocking of the interaction between Siglec-7 and -9 and sialylated ligands by anti Siglec-7/9 antibodies was tested on ELISA assays. Siglec proteins were Siglec-7 human Fc and Siglec-9 Human Fc recombinant proteins, and ligands were biotinylated polymers with sialylated trisaccharides (Neu5Aca2-3Galb1-4GcNAcb-PAA-biotin Glycotech #01-077 referred to as “Sia1” and 6′-Sialyllactose-PAA-biotin Glycotech #01-039 (referred to as “Sia2”). Briefly, Protein A was coated on ELISA plates over night at 4° C. After 3 washes and saturation, Siglec-7 Fc and Siglec-9 Fc were added at 0.8 μg/well at RT for 1H30. After 3 washes, mAbs were added at 20 ug/ml and a series of dilution of 1:5. After 3 washes, biotinylated sialylated polymers were added for 3 hours at room temperature. After 3 washes, Streptavidin-Peroxidase (Beckman) was added at 1:1000. […] The absorbance was read at 450 nm.
On the technique in general: An ELISA detects its analyte on a solid surface through an enzyme-linked reagent.

Assay [9] has as its target T9, Human Siglec-9 Ig-like C2-type domain 1 (human).
T9 construct: expressed on HEK293T cells
T9 chain: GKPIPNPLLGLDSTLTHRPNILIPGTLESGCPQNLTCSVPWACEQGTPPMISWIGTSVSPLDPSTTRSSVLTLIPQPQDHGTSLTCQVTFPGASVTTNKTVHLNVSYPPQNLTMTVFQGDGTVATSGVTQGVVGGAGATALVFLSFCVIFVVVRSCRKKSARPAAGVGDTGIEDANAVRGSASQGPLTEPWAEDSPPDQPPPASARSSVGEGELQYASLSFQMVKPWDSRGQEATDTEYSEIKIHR
Briefly: flow cytometry, HEK293T cells expressing single Siglec-9 domains.

Assay [10] addresses T10, Siglec-9 Fc protein (human).
T10 construct: Produced in CHO cells; also called human Siglec-9 Fc
The assay can be described thus: ELISA, blocking: Siglec-9 Fc captured on protein A, mAb dilution series, then biotinylated polymer Sia1 (Neu5Aca2-3Galb1-4GlcNAcb-PAA-biotin), streptavidin-peroxidase (top panel). As for the experimental part:
as §2

T8 sequence (chain, as listed by the source limits assumed): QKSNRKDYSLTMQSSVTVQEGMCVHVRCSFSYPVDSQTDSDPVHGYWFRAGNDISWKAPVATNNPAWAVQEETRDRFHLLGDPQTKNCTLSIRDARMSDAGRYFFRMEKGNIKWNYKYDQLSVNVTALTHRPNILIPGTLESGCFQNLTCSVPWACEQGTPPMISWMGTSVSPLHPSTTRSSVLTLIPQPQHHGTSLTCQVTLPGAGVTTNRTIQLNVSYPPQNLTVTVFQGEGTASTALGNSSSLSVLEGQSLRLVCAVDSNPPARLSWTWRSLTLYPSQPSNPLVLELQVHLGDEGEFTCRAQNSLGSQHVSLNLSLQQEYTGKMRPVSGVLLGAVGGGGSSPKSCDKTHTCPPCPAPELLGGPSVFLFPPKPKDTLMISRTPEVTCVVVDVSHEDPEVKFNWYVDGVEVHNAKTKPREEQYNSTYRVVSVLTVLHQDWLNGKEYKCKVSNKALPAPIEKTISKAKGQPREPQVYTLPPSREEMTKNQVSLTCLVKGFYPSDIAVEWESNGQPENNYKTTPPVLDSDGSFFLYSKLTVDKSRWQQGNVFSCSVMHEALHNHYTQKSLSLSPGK
T10 sequence (chain, as listed by the source limits assumed): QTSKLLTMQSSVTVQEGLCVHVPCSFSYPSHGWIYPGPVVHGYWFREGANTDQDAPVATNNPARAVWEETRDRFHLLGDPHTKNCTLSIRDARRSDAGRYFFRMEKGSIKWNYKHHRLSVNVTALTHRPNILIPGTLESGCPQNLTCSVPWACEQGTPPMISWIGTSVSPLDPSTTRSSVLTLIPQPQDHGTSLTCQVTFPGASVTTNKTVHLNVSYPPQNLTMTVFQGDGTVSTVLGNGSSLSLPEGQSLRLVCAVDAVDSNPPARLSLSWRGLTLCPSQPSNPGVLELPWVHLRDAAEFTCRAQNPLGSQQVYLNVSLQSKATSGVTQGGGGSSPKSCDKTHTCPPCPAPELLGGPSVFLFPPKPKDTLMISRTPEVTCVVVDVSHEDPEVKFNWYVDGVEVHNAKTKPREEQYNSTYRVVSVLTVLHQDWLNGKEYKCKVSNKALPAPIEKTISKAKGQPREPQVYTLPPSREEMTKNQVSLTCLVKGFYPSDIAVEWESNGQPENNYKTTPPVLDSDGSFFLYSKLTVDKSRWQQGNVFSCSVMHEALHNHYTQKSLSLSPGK
T1 sequence (Q9Y286 19-467): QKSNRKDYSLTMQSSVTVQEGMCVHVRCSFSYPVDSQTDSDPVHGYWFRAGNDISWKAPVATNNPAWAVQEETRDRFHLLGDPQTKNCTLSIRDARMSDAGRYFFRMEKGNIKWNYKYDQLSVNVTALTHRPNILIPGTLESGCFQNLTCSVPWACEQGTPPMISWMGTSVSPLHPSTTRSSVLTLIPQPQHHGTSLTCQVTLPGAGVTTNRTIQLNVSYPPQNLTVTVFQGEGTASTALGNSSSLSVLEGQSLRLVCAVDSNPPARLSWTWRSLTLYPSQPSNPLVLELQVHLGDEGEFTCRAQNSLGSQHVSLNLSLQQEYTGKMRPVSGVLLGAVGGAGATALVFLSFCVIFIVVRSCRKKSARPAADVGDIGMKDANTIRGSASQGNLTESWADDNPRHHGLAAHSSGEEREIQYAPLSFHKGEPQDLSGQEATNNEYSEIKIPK
T2 sequence (Q9Y336 18-463): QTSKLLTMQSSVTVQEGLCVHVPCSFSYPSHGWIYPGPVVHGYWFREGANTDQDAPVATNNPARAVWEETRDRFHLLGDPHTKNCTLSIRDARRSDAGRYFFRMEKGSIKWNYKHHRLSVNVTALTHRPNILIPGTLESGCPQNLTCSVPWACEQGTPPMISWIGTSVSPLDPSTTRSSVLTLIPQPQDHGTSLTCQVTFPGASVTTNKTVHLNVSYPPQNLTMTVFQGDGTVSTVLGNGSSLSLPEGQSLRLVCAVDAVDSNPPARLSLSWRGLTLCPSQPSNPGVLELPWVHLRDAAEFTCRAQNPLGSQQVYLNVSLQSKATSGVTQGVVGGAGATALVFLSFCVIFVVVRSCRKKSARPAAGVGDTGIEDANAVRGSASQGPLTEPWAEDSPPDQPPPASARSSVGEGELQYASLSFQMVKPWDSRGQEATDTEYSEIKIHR
T3 sequence (chain, as listed by the source limits assumed): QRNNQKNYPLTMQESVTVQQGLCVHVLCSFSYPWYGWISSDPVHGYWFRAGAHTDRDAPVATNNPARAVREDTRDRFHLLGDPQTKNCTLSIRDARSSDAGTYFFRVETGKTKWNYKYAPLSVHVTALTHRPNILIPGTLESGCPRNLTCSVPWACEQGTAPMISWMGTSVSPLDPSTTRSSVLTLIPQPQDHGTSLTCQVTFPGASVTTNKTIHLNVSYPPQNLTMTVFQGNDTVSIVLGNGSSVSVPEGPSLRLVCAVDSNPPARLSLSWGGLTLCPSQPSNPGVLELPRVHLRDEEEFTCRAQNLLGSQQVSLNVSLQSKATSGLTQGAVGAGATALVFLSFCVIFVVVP
T7 sequence (Q9Y336 other isoform, or with tags, fused parts or gaps mutant): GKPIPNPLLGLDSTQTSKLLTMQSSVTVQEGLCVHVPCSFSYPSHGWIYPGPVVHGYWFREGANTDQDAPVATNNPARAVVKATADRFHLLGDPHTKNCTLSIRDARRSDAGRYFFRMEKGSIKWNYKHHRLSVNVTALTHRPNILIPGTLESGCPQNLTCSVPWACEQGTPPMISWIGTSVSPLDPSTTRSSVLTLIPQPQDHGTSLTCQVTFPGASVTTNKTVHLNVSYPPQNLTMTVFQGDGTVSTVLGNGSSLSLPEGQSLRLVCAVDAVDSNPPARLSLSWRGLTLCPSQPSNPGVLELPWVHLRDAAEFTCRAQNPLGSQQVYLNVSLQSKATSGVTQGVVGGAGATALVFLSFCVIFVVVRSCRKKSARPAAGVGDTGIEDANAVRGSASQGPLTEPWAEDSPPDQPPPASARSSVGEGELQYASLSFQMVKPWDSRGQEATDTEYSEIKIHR
T6 sequence (Q9Y336 other isoform, or with tags, fused parts or gaps mutant): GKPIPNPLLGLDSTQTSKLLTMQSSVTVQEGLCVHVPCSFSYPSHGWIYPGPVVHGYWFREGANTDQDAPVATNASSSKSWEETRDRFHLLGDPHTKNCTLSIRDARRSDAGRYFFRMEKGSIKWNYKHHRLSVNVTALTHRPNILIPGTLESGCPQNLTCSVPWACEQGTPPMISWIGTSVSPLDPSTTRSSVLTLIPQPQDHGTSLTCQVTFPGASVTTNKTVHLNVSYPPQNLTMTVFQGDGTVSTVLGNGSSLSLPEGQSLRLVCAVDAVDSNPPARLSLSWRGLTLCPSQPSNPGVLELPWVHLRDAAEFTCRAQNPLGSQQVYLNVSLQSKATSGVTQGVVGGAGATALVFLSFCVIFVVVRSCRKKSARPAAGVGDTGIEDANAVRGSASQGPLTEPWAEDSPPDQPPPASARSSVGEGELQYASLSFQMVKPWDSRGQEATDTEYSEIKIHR
T5 sequence (Q9Y336 other isoform, or with tags, fused parts or gaps mutant): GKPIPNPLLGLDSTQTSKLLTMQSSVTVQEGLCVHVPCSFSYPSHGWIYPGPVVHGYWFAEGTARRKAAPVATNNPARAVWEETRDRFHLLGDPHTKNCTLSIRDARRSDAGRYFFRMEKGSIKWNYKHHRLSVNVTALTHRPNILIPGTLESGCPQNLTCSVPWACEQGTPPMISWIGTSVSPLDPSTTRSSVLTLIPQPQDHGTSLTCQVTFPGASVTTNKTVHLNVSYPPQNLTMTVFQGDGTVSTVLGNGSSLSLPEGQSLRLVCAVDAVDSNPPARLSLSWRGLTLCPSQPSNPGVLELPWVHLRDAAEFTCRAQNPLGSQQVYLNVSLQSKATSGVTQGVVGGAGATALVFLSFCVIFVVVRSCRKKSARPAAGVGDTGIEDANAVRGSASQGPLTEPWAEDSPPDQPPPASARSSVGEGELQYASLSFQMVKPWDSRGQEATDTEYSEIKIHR
T4 sequence (Q9Y336 other isoform, or with tags, fused parts or gaps mutant): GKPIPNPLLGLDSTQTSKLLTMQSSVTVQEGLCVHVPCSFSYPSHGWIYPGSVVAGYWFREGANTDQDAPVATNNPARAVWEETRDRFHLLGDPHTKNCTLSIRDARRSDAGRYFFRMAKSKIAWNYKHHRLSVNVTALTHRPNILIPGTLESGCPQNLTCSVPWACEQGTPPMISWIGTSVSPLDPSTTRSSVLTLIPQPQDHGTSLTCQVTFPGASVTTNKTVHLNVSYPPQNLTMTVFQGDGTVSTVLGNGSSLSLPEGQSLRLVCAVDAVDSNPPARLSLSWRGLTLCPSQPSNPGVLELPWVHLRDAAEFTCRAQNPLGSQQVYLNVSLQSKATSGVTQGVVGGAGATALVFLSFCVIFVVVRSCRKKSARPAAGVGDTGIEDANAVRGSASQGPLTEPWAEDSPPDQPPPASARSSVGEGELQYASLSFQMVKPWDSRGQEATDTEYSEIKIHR

B1: mAb1 (antibody, human IgG1, V domains shown)
VH: DVQLQESGPGLVKPSQSLSLTCTVTGYSITGGFAWNWIRQFPGNTLEWMGYIGYGGSTSYNPSLNSRISITRDTSKNHFFLQFNSVTTDDSATYYCARGDYLFAYWGQGTLVTVSA
VL: DIVMTQSHKFMSTSVGDRVSITCKASQDVNTAVAWYQQKPGQSPKLLIYSASYRYTGVPDRFTGSGSGTDFTFTISSVQAEDLAVYYCQQHYSTPRTFGGGTKLEIK
As for B1, the EC50 in assay [1] came to 0.21 µg/mL; in assay [2], 0.11 µg/mL; in [3], 0.67 µg/mL. Further, the binding result in [4] is “binds”; in assay [5] it was “binds”; in assay [6], “no binding”; in assay [7], “no binding”. The “IC50 (read off the curve)” value in assay [8] is approximately 3 µg/mL.

B2: mAb4 (antibody, human IgG1, V domains shown)
VH: DVQLVESGGDLVKPGGSLKLSCAASGFAFSSYDMSWVRQSPEKRLEWIAHIGSGGGNIYYPDTVKGRFTISRDNAKNTLYLQMRSLKSEDTAMYYCARLIFTTGFYGMDYWGQGTSVTVSS
VL: DIQMTQTTSSLSASLGDRVTISCRASQDISSYLNWYQQKPDGTIKLLIYYTSRLHSGVPSRFSGSGSGTDYSLTISNLDQDDIATYFCQQGNALPWTFGGGTKLEIK
On to B2, for which the EC50 in assay [1] came to 0.17 µg/mL; in assay [2] it was 0.28 µg/mL; in [3], 0.17 µg/mL. In addition, the binding result in [9] and in [10] was “binds” in each case. The “IC50 (read off the curve)” value in assay [8] is approximately 2 µg/mL.

B3: mAb5 (antibody, human IgG1, V domains shown)
VH: EIQLQQSGPELEKPGASVKISCKASGYSFSDYNMNWVKQSNGKSLEWIGNIDPYYGATSYNQRFKGKATLTVDKSSSTAYMQLKSLTSEDSAVYYCARGDSLFAYWGHGTLVTVSA
VL: DIVMTQSQEFMSTSLGDRVSVTCKASQNVGTNVAWYQQKPGQSPKALLYSASSRYSGVPDRFTGSGSGTDFTLTISNVQSEDLAEYFCQQYITYPYTFGGGTKLEIK
For B3, the EC50 in assay [1] was 0.22 µg/mL; in assay [2], 0.26 µg/mL; in assay [3], 0.14 µg/mL. Further, the binding result in [9] and in assay [10] was “binds” each time. Also, in [8], the “IC50 (read off the curve)” value is approximately 1 µg/mL.

B4: mAb6 (antibody, human IgG1, V domains shown)
VH: EIQLQQSGPELEKPGASVKISCKASGYSFSDYNMNWVKQSNGKSLEWIGNIDPYYGATSYNQRFKGKATLTVDKSSSTAYMQLKSLTSEDSAVYYCARGDSLFAYWGQGTLVTVSA
VL: DIVMTQSQEFMSTSLGDRVSVTCKASQNVGTNVAWYQQKPGQSPKALLYSASSRYSGVPDRFTGSGSGTDFTLTINNMQSEDLAEYFCQQYITYPYTFGGGTKLEIK
For B4, the EC50 in assay [1] is 0.33 µg/mL; in assay [2] it was 0.31 µg/mL; in [3], 0.17 µg/mL. The binding result in assay [9] and in [10] was “binds” in each case.
